The text below walks through data of patent US20190177371A1 (published 2019).

The term IC50 denotes the concentration needed to halve the response being measured. A high value points to weaker potency.

In test [1] the target is T1, human melanocortin 1 receptor (human, UniProt Q01726 1-317).
T1 construct: whole, on cells; also called hMC1R; hMC1 receptor
The test can be described thus: competition binding vs [125I]-NDP-α-MSH, A375 human melanoma cells.

Test [2] addresses T1, human melanocortin 1 receptor. Description: cell-based or functional assay.
For test [3] the target is unchanged. Description: competition binding vs [125I]-NDP-α-MSH, whole HEK293 cells stably expressing the receptor.

T1 sequence (Q01726 whole entry): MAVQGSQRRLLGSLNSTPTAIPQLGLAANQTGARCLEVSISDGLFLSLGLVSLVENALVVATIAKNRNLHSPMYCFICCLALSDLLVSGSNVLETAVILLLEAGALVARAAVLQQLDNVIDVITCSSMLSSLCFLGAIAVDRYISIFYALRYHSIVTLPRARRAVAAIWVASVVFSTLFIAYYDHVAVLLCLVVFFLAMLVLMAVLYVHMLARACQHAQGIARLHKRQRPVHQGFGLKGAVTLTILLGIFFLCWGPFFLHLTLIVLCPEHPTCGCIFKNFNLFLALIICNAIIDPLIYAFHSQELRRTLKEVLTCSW

B1: Peptide 15: Ac-Nle-c[Asp-(NMe)His-nal-(NMe)Arg-Trp-Lys]-NH2 (peptide)
peptide: LDHXRWK
modifications: N-terminal acetyl; Nle at 4; D-Nal(2') (nal) at 7; side-chain lactam Asp5-Lys10; C-terminal amide; backbone N-methyl on His6 and Arg8 (α-MSH 4-10 numbering)
For the molecule B1, the IC50 in test [1] was 14.8 nM. In test [2], the “EC50 (cAMP)” value worked out at 22 nM.

B2: Peptide 32: Ac-Nle-c[Asp-(NMe)His-(NMe)nal-(NMe)Arg-(NMe)Trp-(NMe)Lys]-NH2 (peptide)
peptide: LDHXRWK
modifications: N-terminal acetyl; Nle at 4; D-Nal(2') (nal) at 7; side-chain lactam Asp5-Lys10; C-terminal amide; backbone N-methyl on His6, nal7, Arg8, Trp9 and Lys10 (α-MSH 4-10 numbering)
notes: also called Penta-N-methylated compound 32
Consider B2, for which the IC50 in test [3] was found to be 68 nM.

B3: Peptide 28: Ac-Nle-c[Asp-(NMe)His-nal-(NMe)Arg-(NMe)Trp-(NMe)Lys]-NH2 (peptide)
peptide: LDHXRWK
modifications: N-terminal acetyl; Nle at 4; D-Nal(2') (nal) at 7; side-chain lactam Asp5-Lys10; C-terminal amide; backbone N-methyl on His6, Arg8, Trp9 and Lys10 (α-MSH 4-10 numbering)
On to B3, for which, in test [2], the “EC50 (cAMP)” value was 20 nM.
